# Experiment: soluble on expression in E. coli; label from the status in PepcDB or PDB records
row,Sequence,soluble on expression in E. coli
1,MGSDKIHHHHHHMLELTPNLNMNSKKALYVQLYEYIKKEIKDGTIVPFTKLPAKRKLAIHLQVSKNTVEAAYEQLLAEGYIESISRKGYFVCKIEQMVHVEDSEERIEEVLFQEKSYKFDFTQTGIDTNAFPFNMYRKIVNEVWQPYNNELLFLGHPQGEASLREEITNYLYESRGVRCSASQIVLGAGTQILVKLLFQLLKGSNYAVENPGYHRKMVVFEQGEEKVQMLSLDRDGICMADLENSDANVVFVTPSHQFPYGMIMPITRRTQLLQWAKKAKDRYIIEDDYDSEFRYSGRPIPALQGLDTEGKVIYMGTLSKALLPSLRMSYIVLPKNLIIKYQKEYLFYTQSVSRMDQEVIRKFLNEGYWEKHIHKMRVVYRKKRDRLVFEIEKYFSNRVEVIGEDSGLHILLQVHNGMREEELIQEAAKYSIKVYPVSTYYKDGTAPENVVLLGFAILSEEEIAKAIQLLNTAWFRKKVKKHPHT,not soluble
2,MGSDKIHHHHHHMLFNQLQNETNLTNSEKEIARYLLNQNLDLATLSAQKLGELTFTSKPTVLRFIKKLGYKKFNEFCYDLISEQERIKKSRDLLKHININKDSNLSDLLIKVPNLYNQAINRTNSLMDQENLNLIVKKLNTLDYIDFYGSGITEGLAQIGSFKFSSIGKFGGVYSNVNEHYLTSIHGINKHGAIIISFTGGNKAMINAAKDLKKLNIYSLGIGGLENEELKNNCSSYLTIPFENLSLGMESIVPSVAINYVIDILFTSLTIKNLSQNVTNALKVKNLRK,not soluble
3,MGSDKIHHHHHHMLGTLKKMRVQLDDAQQVQYQLVVGDELLTLNPLIGKQLTLTHTGNIFCCNCGKKSKKSYSQGHCFVCMQKLASCDMCIMKPETCHYDQGTCREPEWAQSHCFVPHYVYLANTSGVKVGITRHTQLPTRWIDQGATQGLPIFKVSTRQLSGLVEVELAKLVNDKTHWQAMLKGHADDIDLNVKAAELIPQIEAKLHEIGMQKGDYSIERLDETIQPIHYPIDTFPKKITSHNFDKNGVVSGILQGIKGQYLMFDTGVINIRKFSSYEISVEHD,not soluble
4,MGSDKIHHHHHHMLIEIPNVFSKQEVNQLREQLDARTWIDGNQTSGMMASTRKRNQQLDKDDPVALQIGELIMARLLAHPLFVSAALPLQFYPPLFNRYQGGDTFGYHIDNAIRSTSDGMVRTDLSATLFLSELNAYEGGELVIQDTYGQQSIKLAAGSLVLYPSTSLHQVTPVTSGERTSAFMWLQSMVRDEGQRRLLFQLDQSIQTLTAQQAAEQELFNLTGVYHNLLRRWSEL,not soluble
5,MGSDKIHHHHHHMLIFQCHGDRCLSSNLQEHFTDLKKLVNGKSLLMGEKNVQKRLIRLGQILRVFLDKDRVSSIWLSRNFQITPRTIQRDLAALKESGFPIHEIQKGVYRLGKDLIKNLEVFDETELALVITLRNVVGQLGRPFQKAADGLFNSLYDAASSMPVYVRMDESIPLDSSLLNRIVKSIRLKKIAGFYYKSGKPHQVNMEPYRVVHFGGFWYLVGKDTGDSVIKRYALDRISDFKMARTPFRKIPENLDSAIQGSANIWFSTDQNLVVKISVDASSSGYFKRRKVFPTQEITEEREDGSLIVTFRVGRYEAIQDILKSWLPHITILEPAEFRDAFLADMKKWVQRQEQVGS,not soluble
6,MGSDKIHHHHHHMLIFVMKPRSNPVTGGFHSDKFANWNTMPLETLPVISLAGEPDALSRELGESFRTFGFAMVRDHGIDPDLIARAWDLTAQFFALPEAEKRSYYLDGLAGARGYTPFGTEIAKGARLHDLKEFWHVGRDLPAGHPLSASMPPNVWPARPEGFRQTFETLYGEFDKVGARILSRIAVWLGLDENWFDPAIEDGNSVMRLLHYPPVPDAESGAIRAGAHEDINLITLLLGAEEAGLELLSRQGEWIGVSPPEGALVVNIGDMLQRLTNHVLPSTTHRVRNPEGERARFSRYSMPFFLHLRSDFPFVTLPQCISDENPDRYPVSITADDYLQERLREIGLRK,not soluble
7,MGSDKIHHHHHHMLIHQQYTRHGPDYRFGEQMTFLDVKQTFGFSHVRVGRWVTREESLIAANLVFDSLADLAFILHLPPLTLGLRQSLSLAFGHGGQKGVQAHYAPAARELALAKNAGAGALAHEFWHAFDHYVAPKAFQRVTGRFTCASDLWLADLPLIDHPLNQRLVEIFRVTLLSEDNLAPSDYVRRAIALDKRYGSQYFAKPTEMMARAFEACIESYQGIQNPYLVSGTRYSSLAKEGAYPDEPHRQRIFKALIAYFEPLGIALGKAG,not soluble
8,MGSDKIHHHHHHMLKELHLQQVGPAAHFDVAFADRLNIFTGDNGLGKSFLLDIAWWVMTTNWAEQPAYPQRVKGENPQITAVVSNKKNIREYQSQFDFSEQQWRNLQMPPLLKEVVIYVRVDGSFSIFDPARQRDIAYNFNPNTLWNGLKSKDKVICNGLIQDWVTWQNQPNKYPFELFSNVIKKLAPHPSEWIEVGETTRVSIEDVRDIPTVNLPYGNVPVTQTSAGMKRILGLAYLLVWTWYEHKKASELRQQKPVNQIVLLIDEIESHLHPRWQRVILPAILSVVTELQPRMKIQALVTTHSPLILASLEPNFHEQEDKLFLFKLQDSEVSLDEVPWSKQGDIVGWLTSDIFGLKQARSKEAEIAIEAAEAWMRDDDMNTFPENLRISTQIHQELQRVLPGHDPFWPRWIVTTEKRNSGLSGV,not soluble
9,MGSDKIHHHHHHMLKFLKDSKVDFTVRCCGVSSIPCALFFLTRSTNRTYSILVKEWKNIEKLLDPFFTKGIDQLSMVDALRILMRIGDTLNGVRNHERLYRYIDSLFPAQKIPGGLEIWAFDLFEGKEVVFKEGDDLRRALKISLSFPILYRPYEDRYVPITWITGVPEGELTVLFDVKKEKNPPRNALEYLFLSTTARTKHLERERIKKAKSLRIACTSLSPVSTTRRAYEEFSRFFEEVVL,not soluble
10,MGSDKIHHHHHHMLKSQEIRQKAPELDSLRLGSGWKSEELNKAQIIIESSFGHSHPGSAHLDTLVDEAFKSIDDNGGRGAKYFVTDICDGETQGHDGMNYSLASRDIMTNLMEIHVQATPFDAGIFIASCDKAVPAHLMAIARLDMPSILVPGGIMNAGPNMLTLEQIGTYNAQYERGEITKEQYEHYKQNACPSCGACSFMGTASTMQVMSEALGIALPGTALIPVTSKELKLAAKNAGKQILKLIELNIKPSEIMTKKAFENAIMVHAAIAGSSNCLLHIPAIAHELGMDIEPELFDEIHKKIPYILNIRPSGFYPGSYFWNAGGVPAIMEEIKEFLHLDVMTVTGKTLGENLEDLKNSGYYEEHDKLITSLGIKKEDVIRTKENPIQSQGAIAILKGNLAPGGAVVKHSAISKKLMQVVLKARVFNCEEDAIKSVLTKNIKPGDAVFVRYEGPKGSGMPEMFYTTEAIASDHELVDSTALITDGRFSGATRGPAIGHVSPEASEGGPIAFVQEGDLIKIDIPARKLDIIGTNGIEKSEKEIENILKERSQNWVKPAPRYTKGILGLYTRCASSPMKGGYME,not soluble
11,MGSDKIHHHHHHMLMRDVIPQVLNRGTAMLTQDLLETPPQKTFHHAIDIYLKDSNAFMNTYFARYFEWQGICRERWFHECIHDNLLAAGGVFVTKRAHQEYVEETFPFQRVDCYLNTFQVKQCSAYLLFRFCVGGKPVSLGYQQIVFADRDKRISRFPHGIIERVKEYELVLPGLAS,not soluble
12,MGSDKIHHHHHHMLPLPPYPLPNSIMWTQIDTHISQVTGEKFQSQQRRSVGGGCINQGYAVSNGEITYFVKLNLASQVAMFEAEALGLKEMLATASIRIPQPICWGVAENSSYIVLEWLELGNGNSNTSLRDAPRWEEMGRKLAAMHQASSSQGFGWKINNTIGSTPQINTWTADWTEFYIKHRLGYQFQLARRRGGSFPQQEKLLAAIRELLTHQVQPSLVHGDLWGGNAGCTASGEPVIFDPATYFGDREVDIAMTELFGGFPAAFYKGYNEVFPLDAGYEQRKTLYNLYHILNHFNLFGGGYASQANRMIDQILR,not soluble
13,MGSDKIHHHHHHMLPMADQIQTLQEQVLQARSNGQKLNIVGGGTKSFMGRQGCAEAGTLSLAEHTGVVEYHPVELVLTVRAGTPLKEIEAVLAEQGQCLHFEPPHFGDASTIGGTLACNLSGPARPWAGSVRDQVLGIRLLNGKGEHLRFGGQVMKNVAGYDVSRLQAGAMGTLGVITEISLKVMPKPAATTTLVREMTMDEVVEYMNRRAGEPKPITGACWVDGKVYLRLAGAKSAVEATAEQWGGQVLADGEQFWRQVQDMQHPFFDDPELPLWRFSVDSTAKTPELDGPWMIDWAGSQRWYRGQASLDQLEPLARAAGGQVSLFRGGDRTGEVMHGQPQALKTIQQRVKKSFDPDAIFNPGRLYSWL,not soluble
14,MGSDKIHHHHHHMLPSAPCSGWSHHTLKPLGAGTRGTGYIMPVTNMIHLDNRDHADRQSHGQPAHVLMLEQSPGVVPKSLLGKGLTYLREQWPKLIRYVENGSWPISNNPCENAIRLFCVGRRGWLFSDTVDGANACANLYTLVETSKTNGIDLYRYLAWLFRRLPLAKTVDDYDALLPWRMPVDIHVDPFDKERSTIDHEQENHSAGSLSA,not soluble
15,MGSDKIHHHHHHMLQAQLKPANLVVTCNQTHSTMAQTDAPSTPAKPVIHAKQTAESGSSAQLRHLSRYLVRNLGMLNAAFGDLPLSPVQAHALFEIGKQPLTIKELACKLSIDKSNASRAIKHLIDKNLAQSQIHPRDSRCLVVQLTPAGKKLLLKLDTQQNQLFQEILAQLTPAQTSQIEEALMLYNQAVHNAKHQSGCHIRQATAQDDAAIAKVIRDVSAEYGLTADKGYSVADPTLDCLSQIYSQAGANYWIIELDGRILGGAGIAPLANNEGVCELQKMYFMPEIRGKGLATRVALMALDFARETGYQSCYLETTAALNEAVKLYEKLGFVHLSAPLGNTGHDACEMPMLLELNQ,not soluble
16,MGSDKIHHHHHHMLQPHEMHLAGDLLDFLRDPSTAIARDFATQATLMRIASGATVFAEGDECSFFAILADGQIRVFKIGETGREITLYRFGRGESCILTTSCVLSNHQFPAIAVVEREATAFLVGQAIFRDWIERYSAWRDYVFQLLSRRLASVMAIIDEIAFRRVDVRLAAFLLRQAVGDPPTLNLTHQQIAAELGTSREVVSRILADFSEEGLISSSRGQITVCDRTRLYQRSEAR,not soluble
17,MGSDKIHHHHHHMLRVAVVGGGPSGSCAAEVLAKAGIQTWLFERKLDNAKPCGGAIPLCMVDEFDLPESIIDRKVRNMRMISPSNREVDITLDKVYSPDDKSEYIGMCRREVMDAFMRDRAASLGTNLINGLVTKIDTGSNRQGPYTITYSDYSTGKSTGEAKSLEVDLIIGADGANSRVATAMDAGDYNVAIAFQERIKLPNEEMAYYEDLAEMYVGTDVSPDFYGWVFPKYDHVAVGTGTMQKNQTLIKSLQKGVRERAKKRLVHGEVIKVEAHPIPEHPRPRRVVGRMALVGDAAGYVTKSSGEGIYFAAKSGRMCAEQIVESSRSGELIPSEADLKKYLKKWDRKYGSTYIVLSILQAIFYSNDTAREAFVAMCDDMDVQRLTFDSYLYKKVVAMNPWQQIKLTLLTVDALARGIFRNQTSYKPVPSAVRSDEEVNAMLEIKTITGGIKVDNNKDASKQNLASEQEERDPAVSNKS,not soluble
18,MGSDKIHHHHHHMLSCHLTSPNLVPCETVDNRSSFQILFDHESIIKTYVPVMKLRFRQLQAFHAIVETGTVTGAAGLLGISQPGVSNLLSQLEDQAGMALFERLHGRLLPTPEAELLFAEVDTVMRGMSKVTQTMVDLKTRKLGQLQIASQHAMSFGFMPRLIARFASDRPELNISFQSQYSSKVQEWVWNGLFEIGVCEMPLLYDTLTVYPLYVETMLALHKDNPLARHEVLTPELLAGEPFIVMGQDHMTHRRLREAFQDAGVPLRTRVHSHLFKNLLSFVQEGMGVALLDRFMFDYDMQGDVITRPFRPTIRMDMCVITSKSRPMSQLGKEFLDLLLGELQHYSVEGRPLVPAERKRR,not soluble
